# Measured values taken from the RNAGym collection of RNA variant scans (doi:10.1073/pnas.2313332121).
# Variants at the floor of the assay were thinned out.
# B1: TPR 5TU (parent)
# chain: GGAUCUUCUCGAUCUAACAAAAAAGACAAAUCUGCCACAAAGCUUGAGAGCAUCUUCGGAUGCAGAGGCGGCAGCCUUCGGUGGCGCGAUAGCGCCAACGUUCUCAACUAUGACACGCAAAACGCGUGCUCCGUUGAAUGGAGUUUAUCAUG
# Variants of: B1
# Experiment: polymerase ribozyme fitness, log enrichment relative to wild type (log ratio); higher = more active; in vitro selection for triplet polymerase activity
# Outline: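 In triplicate, a single round of in vitro selection was run on each mutant library, PCR-built and transcribed, covering one subunit of a heterodimeric triplet polymerase ribozyme. Frozen incubation at −7 °C followed annealing with a biotinylated primer, partner subunit and triplets, and extended constructs were then gel-excised, streptavidin-captured and taken through RT-PCR. Fitness is the logarithm of genotype enrichment over wild-type enrichment, from inverse-variance-weighted replicate averages of Illumina-sequenced inputs and outputs. […] only genotypes with ≥10 input reads and ≥1 read per output were kept.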
row,Variant,polymerase ribozyme fitness (log ratio)
1,GGAUCUUCUCGAUCUAACAAAAAGGACUAAUCUGCCACAAAGCUUGAGAGCAUCAUCGGAUGCAGAGGCGGCAGCCUUCGGUGGCGCGAUAGCGCCAACGUUCUCAACUAUGACACGCAAAACGCGUGCUCCGUUGAAUAGAGUUUAUCAUG [A24G A28U U55A G140A],≤ -4.2
2,GGAUCUUCUCGAUCUAACAAAAAGGACAAAUCUGCCACAAAGCUUGAGAGCAUUUUCGGAUGCAGAGGCGGCAGCCUUCGGUGGCGCGAUAGCGCCAACGUUCUCAACUAUGACACGCAAAACGCGUGCUCCGUUGAAUGGAGUUUAUCAUG [A24G C54U],-2.83
3,GGAUCUUCUCGAUCUAACAAAAAGGACAAAUCUGCCACAAAGCUUGAGAGCCUCUUCGGAUGCAGAGGCGGCAGCCUUCGGUGGCGCGAUAGCGCCAACGUUCUCAACUUUGACACGCAAAACGCGUGCUCCGUUGAAUGGAGUUUAUCAUG [A24G A52C A110U],≤ -4.2
4,GGAUCUUCUCGAUCUAACAAAAAGGACAAAUCUGCCAUAAAGCUUGAGAGCAUCUUCGGAUGCAGAGGCGGCAGCCUUCGGUGGCGCGAUAGCGCCAACGUUCUCAACUAUGACACGCAAAACGCGUGCUCCGUUGAAUGGAGUUUAUCAUG [A24G C38U],≤ -4.2
5,GGAUCUUCUCGAUCUAACAAAAAGGAUAAAUCUGCCACAAACCUUGAGAGCAUCGUCGGAUGCAGAGGCGGCAGCCUUCGGUGGCGCGAUAGCGCCAACGUUCUCAACUAUGACACGCAAAACGCGUGCUCCGUUGAAUGGAGUUUAUCAUG [A24G C27U G42C U55G],≤ -4.2
6,GGAUCUUCUCGAUCUAACAAAAAGGUCAAAUCUGCCAUAAAGCUUGUGAGCAUCUUCGGAUGCAGAGGCGGCAGCCUUCGGUGGUGCGAUAGCGCCAACGUUCUCAACUAUGACAUGCAAAACGAGUGCUCCGUUGAAUGGAGUUUAUCAUG [A24G A26U C38U A47U C85U C116U C125A],≤ -4.2
7,GGAUCUUCUCGAUCUAACAAAAAGGACAAAUCUGCCACAUAGCUUGAGAGCAUCUUCGGACGCAGAGGCGGCAGCCUUCGGUGGCGCGAUAGCGCCAACGUUCUCAACUAUGACACGCAAAACGCGUGCUCCGUUGCAUGGCGUUUAUCAUG [A24G A40U U61C A137C A142C],≤ -4.2
8,GGAUCUUCUCGAUCUAACAAAAAGGACAAAUCUGCCACAAAGCUUGAGAGCAUCUUCGGAUGCAGAGGCGCCAGCCUUCGGUCGCGUGAUAGCGCUAACGUUCUCAACUAUGACACGCAAAACGCGUGCUCCGUUGAAUGGAGUUUAUAAUG [A24G G71C G83C C87U C96U C149A],≤ -4.2
9,GGAUCUUCUCGAUCUAACAAAAAGGACAAAUCUGCCACAAAGCUUGAGCGCAUCUUCGGAUGCAGAGGCGGCAGCCUUCGGUGGCGCGAUAUCGCCAACGUUCUCAACUAUGACACGCAAACCGCGUGCUCCGUUGAAUGGAGUUUAUCAUG [A24G A49C G92U A122C],≤ -4.2
10,GGAUCUUCUCGAUCUAACAAAAAGGACAAAUCUGCCACAAAGCUUGAGAGCAUCUACGGAUGCAGAGGCGGCAGCCUUCGGUGGCGCGAUAGCGCCAACGUUCUCAACUAUGACACGCAACACGCGUGCUCCCUUGAAUGGAGUUUAUCAUG [A24G U56A A121C G133C],≤ -4.2
11,GGAUCUUCUCGAUCUAACAAAAAUGGCAAAUCUGCCACAAAGCUUGAGAGUAUCUUCGGAUGCUGCGGUGGCAGCCUUCGGUGGCGCGAUAGCGCCAACGUUCUCAAAUAUGACACGCAAAAAGCGUGCUCCGUUGAAUGGAGUUUAUCAUG [A24U A26G C51U A64U A66C C69U C108A C123A],≤ -4.2
12,GGAUCUUCUCGAUCUAACAAAAAUGACAACUCUGCCAUAAAGCUAGAGAGCAUCUUCGGAUGCAGAGGCGGCAGCCUUCGGUGGCGCGAUAUCGCCAACGUUCUCAACUAUGACACGCAAAACGCGUGCUCCGUUGAAUGGAGUUUAUCAUG [A24U A30C C38U U45A G92U],≤ -4.2
13,GGAUCUUCUCGAUCUAACAAAAAGGACAAAUCUGCCACAAAGCUUGAGAGCAUCUUCGGAUGCAGAGGCGGCAGCCUUCGGUGGCGUGAUAGCGCCAACGUUCUCAACUAUGACACGCAAAACGCGUGCUCCGUUGAAUGGAGUUUAUCAUG [A24G C87U],-2.3
14,GGAUCUUCUCGAUCUAACAAAAAGGACAAAUCUGCCACAAAGCUUGAGAGCAUCUUCGGAUGCAGAGGCGGCAGCCUUAGGUGGCGCGAUAGCGCAAACGUUCUCAACUAUGACACGCAAAACGCGUGCUCCGUUGAAUGAAGUUUAUCAUG [A24G C79A C96A G141A],≤ -4.2
15,GGAUCUUCUCGAUCUAACAAAAAGGAUAAAACUGCCACAAAGCUUGCGAGCAUCUUCGGAUGCAGAGGCGGCAGCCCUCGGUGGUGCGAUAGCGCCAACGUCCUCAACUAUGACACGCAAAACGCGUGCUCCGUUGAAUGGAGCUUAUCAUG [A24G C27U U31A A47C U77C C85U U102C U144C],≤ -4.2
16,GGAUCUUCUCGAUCUAACAAAAAGGACAAAUCUGCCACAAAGCUUGAGAGCAUCUUCGGAUGCAGAGGCGGCAGCCUUCGGUGGCGCGAUAGCGCCAACGUUCUCAACUAUGACACGCAUAACGCGUGCUCCGUUGAAUGGAGUUUAUCAUG [A24G A120U],-3.9
17,GGAUCUUCUCGAUCUAACAAAAAUGACCAAUCUGCCACAAAGCUUGAGAGCAUCUUCGGAUGCAGAGGCGGCAGCAUUCGGAGGCGCGAUAGCGCCAAUGUUCUCAACUAUGACACGUAAAACGCGUGCUCCGUUGAAUGCAGUUUAUCAUG [A24U A28C C76A U82A C99U C118U G141C],≤ -4.2
18,GGAUCUUCUCGAUCUAACAAAAAGGACAAAUCUGCCACAAAGCUUGAGAGCAUCAUUGGAUGCAGAGGCGGCUGCCUUCGGGGGCGCGAUAACGCCUACGUUCUCAACUAUGACACGCAAAACGCGUGCUCCGUUGAAUGCAGUUUAUCAUG [A24G U55A C57U A73U U82G G92A A97U G141C],≤ -4.2
19,GGAUCUUCUCGAUCUAACAAAAACGACAAAUCUGCCACAAAGCUUGAGAGCAUCUACGGAUGCAGAGGCGGCAGCCUUCGGUGGCACGAUAGCGCCAACGUUCUCAACUAUGACACGCAAAACGCGUGCUCCGUUGAAUGGAGUUUAUCGUG [A24C U56A G86A A150G],≤ -4.2
